Residue numbers refer to the chain shown, from its start. Several values for one entry are separate records, joined by “and”; a condition that tells them apart may be missing. Identical values can stand only once.
T1: mouse neuropilin-2(a0), myc-tagged, expressed in COS-7 cells (mouse, UniProt O35375 21-931)
T1 construct: also called SR2(a)0; m-npn-2
T1 sequence: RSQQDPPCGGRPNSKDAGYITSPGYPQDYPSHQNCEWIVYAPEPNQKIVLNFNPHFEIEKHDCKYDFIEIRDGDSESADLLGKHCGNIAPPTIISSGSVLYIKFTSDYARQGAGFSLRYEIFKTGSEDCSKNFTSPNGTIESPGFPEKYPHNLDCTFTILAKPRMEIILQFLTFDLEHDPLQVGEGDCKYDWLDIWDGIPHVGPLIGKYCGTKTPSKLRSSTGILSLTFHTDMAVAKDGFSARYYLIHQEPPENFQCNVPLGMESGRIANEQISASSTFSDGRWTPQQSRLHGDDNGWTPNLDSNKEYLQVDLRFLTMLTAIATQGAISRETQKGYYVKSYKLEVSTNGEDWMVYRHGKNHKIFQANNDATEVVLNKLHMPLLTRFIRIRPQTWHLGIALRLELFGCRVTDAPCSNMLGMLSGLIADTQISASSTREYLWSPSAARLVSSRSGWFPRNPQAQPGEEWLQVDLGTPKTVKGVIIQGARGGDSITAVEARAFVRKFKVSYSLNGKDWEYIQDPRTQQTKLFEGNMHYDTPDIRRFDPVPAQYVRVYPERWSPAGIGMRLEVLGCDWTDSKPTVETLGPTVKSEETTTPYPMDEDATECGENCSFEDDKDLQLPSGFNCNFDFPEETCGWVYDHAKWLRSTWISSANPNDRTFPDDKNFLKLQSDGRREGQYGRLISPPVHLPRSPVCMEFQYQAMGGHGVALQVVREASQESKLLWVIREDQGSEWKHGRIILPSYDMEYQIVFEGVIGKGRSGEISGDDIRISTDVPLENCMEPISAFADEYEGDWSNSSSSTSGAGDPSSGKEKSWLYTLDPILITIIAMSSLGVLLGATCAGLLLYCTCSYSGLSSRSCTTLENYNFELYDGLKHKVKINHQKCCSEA

T2: mouse neuropilin-2(a5), myc-tagged, expressed in COS-7 cells (mouse, UniProt O35375 21-931)
T2 construct: also called a5 isoform of neuropilin-2; SR2(a)5
T2 sequence: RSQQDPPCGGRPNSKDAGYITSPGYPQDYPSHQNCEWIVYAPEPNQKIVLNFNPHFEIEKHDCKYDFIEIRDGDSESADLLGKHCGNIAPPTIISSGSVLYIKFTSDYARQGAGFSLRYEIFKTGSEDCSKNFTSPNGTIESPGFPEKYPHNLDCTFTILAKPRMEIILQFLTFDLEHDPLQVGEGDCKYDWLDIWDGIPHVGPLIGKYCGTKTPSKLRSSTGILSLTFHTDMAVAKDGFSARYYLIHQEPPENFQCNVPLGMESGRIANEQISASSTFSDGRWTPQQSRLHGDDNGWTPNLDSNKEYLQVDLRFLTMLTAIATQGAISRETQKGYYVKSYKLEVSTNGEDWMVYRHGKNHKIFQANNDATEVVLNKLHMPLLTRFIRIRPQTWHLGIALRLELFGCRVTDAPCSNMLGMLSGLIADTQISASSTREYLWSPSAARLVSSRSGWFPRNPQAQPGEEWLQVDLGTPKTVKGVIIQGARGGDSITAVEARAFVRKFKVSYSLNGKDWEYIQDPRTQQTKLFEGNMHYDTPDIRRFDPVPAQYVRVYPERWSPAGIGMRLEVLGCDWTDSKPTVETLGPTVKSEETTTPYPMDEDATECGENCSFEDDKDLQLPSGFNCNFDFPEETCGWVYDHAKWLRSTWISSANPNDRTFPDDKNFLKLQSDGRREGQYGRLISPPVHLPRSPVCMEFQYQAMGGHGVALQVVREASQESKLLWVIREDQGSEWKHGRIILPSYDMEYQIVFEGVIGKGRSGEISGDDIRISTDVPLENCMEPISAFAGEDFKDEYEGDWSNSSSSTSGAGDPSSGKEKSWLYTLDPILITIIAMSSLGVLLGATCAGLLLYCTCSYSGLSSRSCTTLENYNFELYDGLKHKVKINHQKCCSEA

T3: mouse neuropilin-2(a22), myc-tagged, expressed in COS-7 cells (mouse, UniProt O35375 21-931)
T3 construct: also called SR2(a)22
T3 sequence: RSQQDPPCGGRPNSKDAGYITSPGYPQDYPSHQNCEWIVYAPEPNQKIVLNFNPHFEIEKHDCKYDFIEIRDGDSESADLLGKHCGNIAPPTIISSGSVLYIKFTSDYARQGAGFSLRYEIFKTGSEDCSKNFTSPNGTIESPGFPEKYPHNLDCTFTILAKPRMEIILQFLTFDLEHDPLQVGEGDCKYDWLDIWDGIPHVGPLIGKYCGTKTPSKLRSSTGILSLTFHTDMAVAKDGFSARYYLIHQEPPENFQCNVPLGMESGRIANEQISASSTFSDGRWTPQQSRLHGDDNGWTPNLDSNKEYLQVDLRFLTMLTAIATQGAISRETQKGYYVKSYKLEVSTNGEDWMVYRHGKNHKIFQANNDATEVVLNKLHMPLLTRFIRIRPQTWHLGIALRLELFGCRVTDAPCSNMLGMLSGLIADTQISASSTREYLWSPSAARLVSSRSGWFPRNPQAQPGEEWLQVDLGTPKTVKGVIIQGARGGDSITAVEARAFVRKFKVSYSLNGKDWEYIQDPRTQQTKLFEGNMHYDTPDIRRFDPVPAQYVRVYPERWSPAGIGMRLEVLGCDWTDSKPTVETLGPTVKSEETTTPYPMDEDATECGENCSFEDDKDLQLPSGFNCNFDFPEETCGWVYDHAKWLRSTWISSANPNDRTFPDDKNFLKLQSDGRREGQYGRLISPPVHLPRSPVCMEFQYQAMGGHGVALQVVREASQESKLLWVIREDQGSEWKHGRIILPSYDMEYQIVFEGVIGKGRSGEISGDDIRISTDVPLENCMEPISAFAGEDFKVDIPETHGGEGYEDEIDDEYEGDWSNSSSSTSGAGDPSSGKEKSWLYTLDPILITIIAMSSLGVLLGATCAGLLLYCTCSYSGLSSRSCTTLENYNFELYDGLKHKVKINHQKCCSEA

B1: AP fusion with the ectodomain of Sema VIa (ligand, UniProt O35464 19-649, looked up)
chain: GFPEDSEPISISHGNYTKQYPVFVGHKPGRNTTQRHRLDIQMIMIMNRTLYVAARDHIYTVDIDTSHTEEIYCSKKLTWKSRQADVDTCRMKGKHKDECHNFIKVLLKKNDDTLFVCGTNAFNPSCRNYRVDTLETFGDEFSGMARCPYDAKHANIALFADGKLYSATVTDFLAIDAVIYRSLGDSPTLRTVKHDSKWLKEPYFVQAVDYGDYIYFFFREIAVEYNTMGKVVFPRVAQVCKNDMGGSQRVLEKQWTSFLKARLNCSVPGDSHFYFNILQAVTDVIRINGRDVVLATFSTPYNSIPGSAVCAYDMLDIANVFTGRFKEQKSPDSTWTPVPDERVPKPRPGCCAGSSSLEKYATSNEFPDDTLNFIKTHPLMDEAVPSIINRPWFLRTMVRYRLTKIAVDNAAGPYQNHTVVFLGSEKGIILKFLARIGSSGFLNGSLFLEEMNVYNPEKCSYDGVEDKRIMGMQLDRASGSLYVAFSTCVIKVPLGRCERHGKCKKTCIASRDPYCGWVRESGSCAHLSPLSRLTFEQDIERGNTDGLGDCHNSFVALNGHASSLYPSTTTSDSASRDGYESRGGMLDWNDLLEAPGSTDPLGAVSSHNHQDKKGVIRESYLKSNDQLVPVT
notes: extracellular domain; also called Sema VIa ectodomain; not shown: alkaline phosphatase (AP) reporter
B2: AP fusion protein comprising only the C domain of SemaIII (AP-C) (ligand)
chain: IIPVEEENPDFWNREAAEALGAAKKLQPAQTAAKNLIIFLGDGMGVSTVTAARILKGQKKDKLGPEIPLAMDRFPYVALSKTYNVDKHVPDSGATATAYLCGVKGNFQTIGLSAAARFNQCNTTRGNEVISVMNRAKKAGKSVGVVTTTRVQHASPAGTYAHTVNRNWYSDADVPASARQEGCQDIATQLISNMDIDVILGGGRKYMFRMGTPDPEYPDDYSQGGTRLDGKNLVQEWLAKRQGARYVWNRTELMQASLDPSVTHLMGLFEPGDMKYEIHRDSTLDPSLMEMTEAALRLLSRNPRGFFLFVEGGRIDHGHHESRAYRALTETIMFDDAIERAGQLTSEEDTLSLVTADHSHVFSFGGYPLRGSSIFGLAPGKARDRKAYTVLLYGNGPGYVLKDGARPDVTESESGSPEYRQQSAVPLDEETHAGEDVAVFARGPQAHLVHGVQEQTFIAHVMAFAACLEPYTACDLAPPAGTTDAAHPGGFIQTLLKVTLEVIDTEHLEELLHKDDDGDGSKTKEMSNSMTPSQKVWYRDFMQLINHPNLNTMDEFCEQVWKRDRKQRRQRPGHTPGNSNKWKHLQENKK
B3: rat semaphorin receptor 1 (rSR1), full length, expressed on cells (receptor)
chain: FRSDKCGGTIKIENPGYLTSPGYPHSYHPSEKCEWLIQAPEPYQRIMINFNPHFDLEDRDCKYDYVEVIDGENEGGRLWGKFCGKIAPSPVVSSGPFLFIKFVSDYETHGAGFSIRYEIFKRGPECSQNYTAPTGVIKSPGFPEKYPNSLECTYIIFAPKMSEIILEFESFDLEQDSNPPGGMFCRYDRLEIWDGFPEVGPHIGRYCGQKTPGRIRSSSGILSMVFYTDSAIAKEGFSANYSVLQSSISEDFKCMEALGMESGEIHSDQITASSQYGTNWSVERSRLNYPENGWTPGEDSYREWIQVDLGLLRFVTAVGTQGAISKETKKKYYVKTYRVDISSNGEDWITLKEGNKAIIFQGNTNPTDVVFGVFPKPLITRFVRIKPASWETGISMRFEVYGCKITDYPCSGMLGMVSGLISDSQITASNQGDRNWMPENIRLVTSRTGWALPPSPHPYINEWLQVDLGDEKIVRGVIIQGGKHRENKVFMRKFKIAYSNNGSDWKMIMDDSKRKAKSFEGNNNYDTPELRAFTPLSTRFIRIYPERATHSGLGLRMELLGCEVEVPTAGPTTPNGNPVDECDDDQANCHSGTGDDFQLTGGTTVLATEKPTIIDSTIQSEFPTYGFNCEFGWGSHKTFCHWEHDSHAQLRWRVLTSKTGPIQDHTGDGNFIYSQADENQKGKVARLVSPVVYSQSSAHCMTFWYHMSGSHVGTLRVKLHYQKPEEYDQLVWMVVGHQGDHWKEGRVLLHKSLKLYQVIFEGEIGKGNLGGIAVDDISINNHIPQEDCAKPTDLDKKNTEIKIDETGSTPGYEEGKGDKNISRKPGNVLKTLDPILITIIAMSALGVLLGAVCGVVLYCACWHNGMSERNLSALENYNFELVDGVKLKKDKLNPHSNYSEA
notes: also called rat SR1; p28
B4: neuropilin-1 transiently expressed in COS-7 cells (receptor)
chain: B3 chain with M183V, H895Q
notes: also called npn-1; SR1

Experiments:
[1] = molecular target: T1, mouse neuropilin-2(a0), myc-tagged, …; assay: AP fusion binding to transfected COS cells
[2] = molecular target: T2, mouse neuropilin-2(a5), myc-tagged, …; assay: AP fusion binding to transfected COS cells
[3] = molecular target: T3, mouse neuropilin-2(a22), myc-tagged, …; assay: AP fusion binding to transfected COS cells
[4] = molecular target: B3; assay: equilibrium binding of AP fusion to 293-EBNA cells stably expressing rat SR1, Hill fit
[5] = molecular target: T4, SemaIII-AP fusion protein (full-length Sema III fused at its carboxy terminus to alkaline phosphatase); assay: as above
[6] = molecular target: AP fusion protein comprising just the semaphorin domain of SemaIII (AP-S); assay: as above
[7] = molecular target: T4, SemaIII-AP fusion protein (full-length …); assay: equilibrium binding of AP fusion to neuropilin-1-expressing cells, Hill fit

B1: no binding [1]; no binding [2]; no binding [3].

With B2 the Kd [4] was 0.84 nM and 0.0672 µg/mL.

In the case of B3, the Kd [5] is reported as 0.0553 µg/mL and 0.325 nM and the Kd [6] is reported as 0.219 µg/mL and 1.45 nM.

In the case of B4, the Kd [7] is reported as 0.325 nM.
